# Test results taken from the Immune Epitope Database (IEDB).
# What was measured:
# [1] = target: HLA-B*35:01; assay: IEDB peptide-MHC binding, purified MHC/competitive/radioactivity; filed as Kd, often an IC50 or EC50 that approximates it; ≥ and ≤ were set here for values at or beyond the usual limits of such assays
# [2] = target: HLA-B*53:01; assay: as above
# [3] = target: HLA-A*24:02; assay: as above
# [4] = target: HLA-A*23:01; assay: as above
# [5] = target: HLA-A*29:02; assay: as above
# [6] = target: HLA-B*51:01; assay: as above
# [7] = target: HLA-A*02:01; assay: IEDB peptide-MHC binding, purified MHC/competitive/fluorescence; filed as Kd, often an IC50 or EC50 that approximates it; ≥ and ≤ were set here for values at or beyond the usual limits of such assays
# [8] = target: HLA-B*15:01; assay: IEDB peptide-MHC binding, purified MHC/competitive/radioactivity; filed as Kd, often an IC50 or EC50 that approximates it; ≥ and ≤ were set here for values at or beyond the usual limits of such assays
# [9] = target: HLA-A*26:01; assay: as above
# [10] = target: HLA-A*01:01; assay: as above
# [11] = target: HLA-A*32:01; assay: as above
# [12] = target: HLA-A*30:02; assay: as above
# [13] = target: HLA-A*30:01; assay: as above
# [14] = target: HLA-A*31:01; assay: IEDB peptide-MHC binding, purified MHC/direct/fluorescence; filed as Kd, often an IC50 or EC50 that approximates it; ≥ and ≤ were set here for values at or beyond the usual limits of such assays; settings: source organism: SARS-CoV1
# [15] = target: HLA-B*27:05; assay: as above; settings: source organism: SARS-CoV1
# [16] = target: HLA-A*68:01; assay: IEDB peptide-MHC binding, purified MHC/competitive/radioactivity; filed as Kd, often an IC50 or EC50 that approximates it; ≥ and ≤ were set here for values at or beyond the usual limits of such assays; settings: source organism: SARS coronavirus Tor2
# [17] = target: HLA-A*33:01; assay: as above; settings: source organism: SARS coronavirus Tor2
# [18] = target: HLA-B*18:01; assay: IEDB peptide-MHC binding, purified MHC/direct/fluorescence; filed as Kd, often an IC50 or EC50 that approximates it; ≥ and ≤ were set here for values at or beyond the usual limits of such assays
# [19] = target: HLA-B*40:01; assay: as above; settings: source organism: Influenza A virus (A/tern/Australia/1/04(H2N5))
# [20] = target: HLA-B*44:02; assay: as above; settings: source organism: Influenza A virus (A/tern/Australia/1/04(H2N5))
# [21] = source organism: Dengue virus 3 Martinique/1243/1999
# [22] = source organism: Dengue virus 4 Philippines/H241/1956
# [23] = source organism: Mammarenavirus whitewaterense
# [24] = source organism: Dengue virus 1 Brazil/97-11/1997
# [25] = source organism: Dengue virus 2 Jamaica/1409/1983
# [26] = source organism: Vaccinia virus WR
# [27] = source organism: Mammarenavirus choriomeningitidis
# [28] = source organism: Mammarenavirus brazilense
# [29] = source organism: Mammarenavirus guanaritoense
# [30] = source organism: Lassa virus Josiah
sequence,measurement,setting,value
EPGVVSPTSY,Kd,[1]; [21],592 nM
same,Kd,[2]; [21],313 nM
LYAVATTIL,Kd,[3]; [22],79.5 nM
KFWYVNHTGF,Kd,[4]; [23],80.9 nM
same,Kd,[3]; [23],604 nM
same,Kd,[5]; [23],341 nM
LAIPPTAGI,Kd,[6]; [24],393 nM
FNYCEGTTVV,Kd,[6]; [21],1220 nM
IALFLAHAI,Kd,[6]; [24],135 nM
LPTALAFHL,Kd,[2]; [24],2.16 nM
same,Kd,[6]; [24],1410 nM
ILTLANWCL,Kd,[7]; source organism: Escherichia coli O139:H28 str. E24377A,0.2 nM
WIAASIILEF,Kd,[8]; [25],6.22 nM
VFIWFIFHF,Kd,[8]; source organism: Vaccinia virus,642 nM
SIPATLFVWY,Kd,[9]; [24],128 nM
same,Kd,[10]; [24],≥ 20500 nM
RQMEGEGIF,Kd,[11]; [25],140 nM
same,Kd,[8]; [25],5.85 nM
SIKNLVSQF,Kd,[8]; [26],24.7 nM
DLKPENILL,Kd,[7]; source organism: Entamoeba histolytica,≥ 20000 nM
VTYLALLAAF,Kd,[9]; [25],≥ 69700 nM
same,Kd,[10]; [25],14800 nM
same,Kd,[8]; [25],40.7 nM
ILKKLSPYF,Kd,[8]; [26],1.18 nM
VSETQHGTIL,Kd,[10]; [21],≥ 70400 nM
KTGESSRSY,Kd,[12]; [27],63.3 nM
same,Kd,[9]; [27],≥ 77900 nM
same,Kd,[11]; [27],14300 nM
same,Kd,[10]; [27],3660 nM
same,Kd,[5]; [27],16700 nM
same,Kd,[13]; [27],1090 nM
MLHNFLPHM,Kd,[8]; [26],41 nM
LAAIANQAV,Kd,[6]; [21],1360 nM
KTFFWFNEV,Kd,[12]; [28],59.2 nM
same,Kd,[9]; [28],12500 nM
same,Kd,[11]; [28],7.26 nM
same,Kd,[10]; [28],11500 nM
same,Kd,[5]; [28],18600 nM
same,Kd,[13]; [28],93.2 nM
TAVAPSMTM,Kd,[1]; [25],15.7 nM
ATFSVPMEK,Kd,[14],141 nM
same,Kd,[15],19000 nM
same,Kd,[16],0.161 nM
same,Kd,[17],14500 nM
SETQGTEKL,Kd,[18]; source organism: Influenza A virus (A/tern/Australia/1/04(H2N5)),2040 nM
same,Kd,[19],10.5 nM
same,Kd,[20],≥ 20000 nM
RFSTSLLFL,Kd,[3]; [22],77.1 nM
TSLTQKVVIF,Kd,[10]; [21],8960 nM
QEKWMTGRM,Kd,[18]; source organism: Yellow fever virus,3050 nM
FFGALKFKI,Kd,[4]; [29],207 nM
same,Kd,[3]; [29],2150 nM
same,Kd,[5]; [29],20.3 nM
IMMLKLLTEF,Kd,[3]; [24],309 nM
same,Kd,[8]; [24],6.24 nM
SSGCYIHFF,Kd,[12]; [30],11500 nM
same,Kd,[9]; [30],≥ 64100 nM
same,Kd,[11]; [30],≥ 33600 nM
same,Kd,[10]; [30],195 nM
same,Kd,[5]; [30],≥ 10000 nM
same,Kd,[13]; [30],6860 nM
ITEMLQKEY,Kd,[12]; [30],172 nM
same,Kd,[9]; [30],≥ 77900 nM
same,Kd,[11]; [30],≥ 77800 nM
same,Kd,[10]; [30],18.8 nM
same,Kd,[5]; [30],7650 nM
same,Kd,[13]; [30],4750 nM
HSIKRNYPY,Kd,[12]; [28],42.3 nM
same,Kd,[9]; [28],660 nM
same,Kd,[11]; [28],1720 nM
same,Kd,[10]; [28],53 nM
same,Kd,[5]; [28],262 nM
same,Kd,[13]; [28],141 nM
